Experimental data as given in patent US20160215040A1 (Regeneron, published 2016).

T1: Ebola virus GP, Cote d'Ivoire strain, on VLPs (Ebola virus, Cote d'Ivoire strain, UniProt Q66810 33-676)
T1 construct: also called Cote d'Ivoire FJ217162; Ivory Coast
T1 sequence: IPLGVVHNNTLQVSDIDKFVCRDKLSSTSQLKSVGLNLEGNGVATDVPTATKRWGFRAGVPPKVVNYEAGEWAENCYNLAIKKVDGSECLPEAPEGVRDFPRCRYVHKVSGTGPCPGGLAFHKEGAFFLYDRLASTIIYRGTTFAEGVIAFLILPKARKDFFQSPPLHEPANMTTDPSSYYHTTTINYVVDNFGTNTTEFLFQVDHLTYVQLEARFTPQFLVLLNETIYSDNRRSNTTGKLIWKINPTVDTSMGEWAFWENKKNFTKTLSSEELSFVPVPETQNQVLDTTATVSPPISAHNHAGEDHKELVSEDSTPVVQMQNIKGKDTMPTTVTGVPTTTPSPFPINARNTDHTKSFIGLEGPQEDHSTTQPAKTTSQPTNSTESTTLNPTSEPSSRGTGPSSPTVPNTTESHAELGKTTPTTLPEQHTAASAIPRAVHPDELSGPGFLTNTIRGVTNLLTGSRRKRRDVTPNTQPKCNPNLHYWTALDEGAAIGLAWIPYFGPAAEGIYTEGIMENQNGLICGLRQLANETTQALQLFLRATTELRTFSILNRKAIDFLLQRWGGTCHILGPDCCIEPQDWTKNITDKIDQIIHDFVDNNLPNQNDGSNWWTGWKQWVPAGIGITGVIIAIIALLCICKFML

T2: Ebola virus GP, Sudan strain, on VLPs (Ebola virus, Sudan strain, UniProt Q7T9D9 33-676)
T2 construct: also called Sudan NC_006432
T2 sequence: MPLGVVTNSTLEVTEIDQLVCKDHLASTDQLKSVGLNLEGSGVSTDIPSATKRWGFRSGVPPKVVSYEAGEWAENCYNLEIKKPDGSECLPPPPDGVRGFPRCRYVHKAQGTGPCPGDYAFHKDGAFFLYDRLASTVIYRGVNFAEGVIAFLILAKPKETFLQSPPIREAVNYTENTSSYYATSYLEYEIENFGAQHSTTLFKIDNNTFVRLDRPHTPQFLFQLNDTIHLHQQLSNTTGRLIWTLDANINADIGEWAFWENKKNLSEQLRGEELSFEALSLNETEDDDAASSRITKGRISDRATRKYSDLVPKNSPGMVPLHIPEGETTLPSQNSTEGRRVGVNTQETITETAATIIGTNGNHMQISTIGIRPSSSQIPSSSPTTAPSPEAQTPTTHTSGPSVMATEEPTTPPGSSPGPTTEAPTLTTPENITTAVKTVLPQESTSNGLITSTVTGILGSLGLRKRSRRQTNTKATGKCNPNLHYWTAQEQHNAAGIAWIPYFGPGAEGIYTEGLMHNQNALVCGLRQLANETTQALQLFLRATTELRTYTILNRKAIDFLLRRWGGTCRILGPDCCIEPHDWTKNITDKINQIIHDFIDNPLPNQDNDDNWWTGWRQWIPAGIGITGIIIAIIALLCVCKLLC

B1: H2aM17359N (antibody, V domains shown)
VH: EVQLVESGGGLAQPGGSLRLSCAASGFTFSSHEMNWVRQAPGKGLEWVSYISRSGRIINYADSVKGRFTISRDNAKNSLYLQMNSLRAEDTAVYYCARERGSYYDILTGSQDYGMDVWGQGTTVTVSS
VL: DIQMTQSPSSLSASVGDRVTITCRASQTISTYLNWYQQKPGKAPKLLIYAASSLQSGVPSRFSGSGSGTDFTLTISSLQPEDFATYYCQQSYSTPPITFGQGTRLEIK
notes: also called HCAF12C06-26
B2: H1H17151P (antibody, V domains shown)
VH: EVQLVESGGGLVQPGGSLRLSCAASGFTFSSYAMNWVRQAPGKGLEWVSVISGSGGWRNYADSVKGRITISRDNSKNTLYLQMNNLRAEDTAVYYCAKDRGATFGVVILGPPYYGMDVWGQGTTVTVSS
VL: DIQMTQSPSSLSASVRDRVTITCRASQSISTYLNWYQQKPGKAPKLLIYAASSLQSGVPSRFSGSGSGTGFTLTISSLQPEDFATYYCQQSYSIPYTFGQGTKLEIK
B3: H1H17161P (antibody, V domains shown)
VH: EVQLVESGGGLVQPGGSLRLSCAASGFTSSSYAMNWVRQAPGKGLEWVSTISGMGGSTYYADSVKGRFTISRDNSKNTLYLQMNSLRAEDTAVYYCAKRGYPHSFDIWGQGTMVTVSS
VL: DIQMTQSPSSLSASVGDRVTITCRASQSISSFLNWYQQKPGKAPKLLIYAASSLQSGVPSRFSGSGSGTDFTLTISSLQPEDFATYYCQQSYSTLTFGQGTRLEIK
notes: also called REGN H1H17161P
B4: H2aM17356N (antibody, V domains shown)
VH: EVQLVESGGGLVQPGGSLRLSCAASGFTFSSYEMNWVRQAPGKGLEWVSYIGSSGRATYYADSVKGRFTISRDNAKNSLYLQMNSLRAEDTAVYYCARPSSIAALLRNQYHFGMDVWGQGTTVTVSS
VL: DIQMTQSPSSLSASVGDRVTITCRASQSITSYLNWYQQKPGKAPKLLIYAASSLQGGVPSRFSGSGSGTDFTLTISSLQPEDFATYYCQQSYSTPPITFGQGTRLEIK
notes: also called HCAF08C07-09
B5: H1H17134P (antibody, V domains shown)
VH: QLQLQESGPGLVKPSETLSLTCTVSGGSISSSSYYWGWIRQPPGKGLEWIGSIYYDGDTYYNPSLKSRVTISVDTSKNQFSLRLSSVTAADTAVYYCARQFDYWGQGTLVTVSS
VL: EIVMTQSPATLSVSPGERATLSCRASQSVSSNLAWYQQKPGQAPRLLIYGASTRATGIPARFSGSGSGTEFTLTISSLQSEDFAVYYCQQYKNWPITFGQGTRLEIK

Experiments:
[1] = biological target: T3, Ebola virus GP with a C-terminal polyhistidine tag (Sino Biologicals, Catalog #40442-V08B1) (Ebola virus, UniProt P87666 33-650); experiment: SPR 37C, mAb captured, pH chase
T3 construct: also called EbolaGP.his; Ebola virus GP.his

[2] = biological target: T3, Ebola virus GP with a C-terminal …; experiment: SPR 25C, mAb captured
[3] = biological target: T1, Ebola virus GP, Cote d'Ivoire strain, …; experiment: MSD, VLPs coated
[4] = biological target: T2, Ebola virus GP, Sudan strain, on VLPs; experiment: MSD, VLPs coated
[5] = biological target: T3, Ebola virus GP with a C-terminal …; experiment: SPR 37C, mAb captured

| Binder | t½ ratio pH 7.4/pH 5.0 [1] | t½ ratio pH 7.4/pH 6.0 [1] | Kd [2] [nM] | koff [2] [s⁻¹] | kon [2] [M⁻¹ s⁻¹] | t½ [2] [min] | binding result [3] | binding result [4] | Kd [5] [nM] | koff [5] [s⁻¹] | kon [5] [M⁻¹ s⁻¹] | t½ [5] [min] |
| --- | --- | --- | --- | --- | --- | --- | --- | --- | --- | --- | --- | --- |
| B1 | 0.7 | 0.8 | 50.9 | 0.000195 | 3820 | 59.4 | no binding | no binding | 22.9 | 0.000352 | 15400 | 32.8 |
| B2 | 0.01 | 0.03 | 7.49 | 9.44e-05 | 12600 | 122 | no binding | no binding | 17 | 0.000383 | 22600 | 30.2 |
| B3 | 0.2 | 0.2 | ≤ 0.189 | ≤ 1e-05 | 52900 | ≥ 1160 | no binding |  | 0.228 | ≤ 1e-05 | 43900 | ≥ 1160 |
| B4 | 0.9 | 0.9 | 4.4 | 9.57e-05 | 21800 | 121 |  | no binding | 34.4 | 0.00025 | 7260 | 46.2 |
| B5 | 0.6 | 0.6 | 12.3 | 0.000941 | 76500 | 12.3 | no binding | no binding | 6.7 | 0.000469 | 69900 | 24.6 |
